Test [1] deals with T1, active human C1s purified from human serum (CompTech, Tyler, TX, catalog number A104) (human, UniProt P09871 16-437; P09871 438-688).
T1 construct: Serum-derived material, biotinylated for the ELISA; also called human active C1s; active C1s
T1 sequence 1: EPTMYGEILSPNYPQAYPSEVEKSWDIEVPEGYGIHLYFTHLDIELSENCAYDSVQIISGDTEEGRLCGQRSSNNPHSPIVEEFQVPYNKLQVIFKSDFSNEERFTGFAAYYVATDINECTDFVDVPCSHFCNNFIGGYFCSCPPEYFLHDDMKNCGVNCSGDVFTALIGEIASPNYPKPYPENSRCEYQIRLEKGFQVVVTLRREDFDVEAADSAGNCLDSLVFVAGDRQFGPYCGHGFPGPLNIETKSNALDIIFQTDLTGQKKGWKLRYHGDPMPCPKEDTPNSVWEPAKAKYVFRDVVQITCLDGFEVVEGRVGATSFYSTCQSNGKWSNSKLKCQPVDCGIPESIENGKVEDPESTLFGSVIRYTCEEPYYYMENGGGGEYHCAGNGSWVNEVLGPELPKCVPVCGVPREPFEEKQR
T1 sequence 2: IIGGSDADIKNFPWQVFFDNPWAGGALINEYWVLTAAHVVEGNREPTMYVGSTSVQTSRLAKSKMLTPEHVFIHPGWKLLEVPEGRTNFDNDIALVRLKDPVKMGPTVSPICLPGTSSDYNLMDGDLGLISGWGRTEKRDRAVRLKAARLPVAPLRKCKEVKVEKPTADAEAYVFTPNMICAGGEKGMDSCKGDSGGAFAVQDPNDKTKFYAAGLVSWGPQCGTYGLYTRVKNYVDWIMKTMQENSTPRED
Nature of the test: SPR, antibody captured via anti-human Fc, C1s in solution.

The target of test [2] is T1, active human C1s purified from human …. Nature of the test: cell-based or functional assay.
Test [3] has the same target. Nature of the test: cell-based or functional assay. The source holds these as a separate data set.
For test [4] the target is unchanged. Nature of the test: cell-based or functional assay. The source holds these as a separate data set.
For test [5] the target is unchanged. The experiment in a line: cell-based or functional assay. This is another data set of the same source.
Test [6] shares this target. Nature of the test: cell-based or functional assay. This is another data set of the same source.
Test [7] has the same target. Nature of the test: SPR (Biacore 4000), 37 C pH 7.4, antibody captured via goat anti-human antibody, C1s in solution, n=4. On the procedure: (§1) Binding of MAB39 and MAB9 to Human Active C1s at 37° C./pH 7.4 Measured by Surface Plasmon Resonance. Human active C1s purified from serum was procured from Complement Technologies, Tyler, TX (catalog number A104). Studies to evaluate MAB39 and MAB9 binding to human active C1s at 37° C. were performed on a Biacore 4000 and Biacore T100 (Cytiva, Marlborough, MA), respectively. Goat anti-human antibody (ThermoFisher, Waltham, MA, USA, catalog number H10500) was amine-coupled to a C1 sensor chip (Cytiva, Marlborough, MA, USA, catalog number BR100535). MAB39 was diluted to 6.67 nM and MAB9 was diluted to 10 nM in 50 mM HEPES pH 7.4, 150 mM NaCl, 1.3 mM Ca, 0.02% Tween-20, 1 mg/mL BSA (HBS). MAB39 was captured for 60 seconds to produce surface densities of 200 RU and MAB9 was captured for 30 seconds to produce surface densities of 10 to 20 RU. Human active C1s was tested for binding using a 3-fold titration series in HBS with a maximum concentration of 12.3 nM for MAB39 and 16 nM for MAB9. Data were processed by subtracting responses from a reference surface as well as a buffer injection. The processed data were fitted with a 1:1 interaction model including baseline offset and bulk refractive index shifts in the association phase. Surfaces were regenerated with a 12 second injection of 1/100 dilution of H3PO4 for MAB39 and 12 second injection of 1/50 dilution of H3PO4 for MAB9. Replicate experiments were performed (n=2 for MAB9 and n=4 for MAB39).
Comparison of Binding Affinities of MAB39 and MAB9 to Human Active C1s by Surface Plasmon Resonance. The human active C1s association constant (ka), disassociation constant (kd) and affinity (KD) for MAB39 and MAB9 were determined in separate experiments (Table 17). […] Statistical analysis was performed using paired t-test, with p value of 0.6168.

For test [8] the target is unchanged. The experiment in a line: SPR, direct comparison.
Test [9] has the same target. Nature of the test: SPR (Biacore T100), 37 C pH 7.4, antibody captured via goat anti-human antibody, C1s in solution, n=2. On the procedure:
as §1, with “The processed data were fitted with a 1:1 interaction model including baseline offset and bulk refractive index shifts in the association phase. Surfaces were regenerated with a 12 second injection of 1/100 dilution of H3PO4 for MAB39 and 12 second injection of 1/50 dilution of H3PO4 for MAB9. Replicate experiments were performed (n=2 for MAB9 and n=4 for MAB39).” left out
(§2) Comparison of Binding Affinities of MAB39 and MAB9 to Human Active C1s by Surface Plasmon Resonance. The human active C1s association constant (ka), disassociation constant (kd) and affinity (KD) for MAB39 and MAB9 were determined in separate experiments (Table 17). […]

The target is the same in test [10]. Nature of the test: SPR (Biacore T100), 37 C pH 7.4, antibody captured via goat anti-human antibody, C1s in solution, n=2; Table 17 experiment, apart from Table 12. On the procedure: as §1, with “The processed data were fitted with a 1:1 interaction model including baseline offset and bulk refractive index shifts in the association phase. Surfaces were regenerated with a 12 second injection of 1/100 dilution of H3PO4 for MAB39 and 12 second injection of 1/50 dilution of H3PO4 for MAB9. Replicate experiments were performed (n=2 for MAB9 and n=4 for MAB39).” left out
as §2

Experimental findings from patent publication US20250188188A1 (DIANTHUS THERAPEUTICS OPCO, published 2025) are described below.

Positions count from the first letter of the chain named. In names and notes the source's numbering stands.

B1: MAB15 (antibody, V domains shown)
VH: QVQLVQSGAEVKKPGASVKVSCKVSGDTLTELSMHWVRQAPGKGLEWMGTFDPEEGETIYAQKFQGRVTMTEDTSTDTAYMELSSLRSEDTAVYYCVTKGLAWLPYYSWGQGTLVTVSS
VL: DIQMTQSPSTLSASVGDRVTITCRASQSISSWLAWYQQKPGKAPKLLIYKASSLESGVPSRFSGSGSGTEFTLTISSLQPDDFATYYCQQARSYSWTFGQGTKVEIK
notes: IgG
Regarding B1, in test [1], binding was characterised by a dissociation constant (Kd) of 6.39 nM, the koff was determined as 0.000737 s⁻¹ and the kon stood at 115000 M⁻¹ s⁻¹.

B2: IgG4-MAB4 (MAB4 in human IgG4 with S228P, L235E and YTE) (antibody, V domains shown)
VH: QVQLVESGGGLVKPGGSLRLSCAASGFTFSDYYMSWIRQAPGKGLEWVSYISRSGSTKYYADSVKGRFTISRDNAKNSLYLQMNSLRAEDTAVYYCARDESQYALDYWGQGTLVTVSS
VL: DIQMTQSPSSLSASVGDRVTITCQASQDISNYLNWYQQKPGKAPKLLIYDASNLETGVPSRFSGSGSGTDFTFTISSLQPEDIATYYCHQYEDYPLTFGGGTKVEIKR
As to B2, in test [2], the “IC50, inhibition of Wieslab complement classical pathway (C5b-9 ELISA), 1% human serum” value worked out at 2.6 nM. In [3], the “IC50, inhibition of sensitized hRBC lysis in 25% human serum, Donor 1” value was 14.9 nM; the “IC50, inhibition of sensitized hRBC lysis in 25% human serum, Donor 2” value was 17.1 nM; the “IC50, inhibition of sensitized hRBC lysis in 25% human serum, Donor 3” value was 6.6 nM. In test [4], the “IC50, inhibition of sensitized hRBC lysis in 25% human serum” value is 17.5 nM. Further, in test [5], the “IC50, inhibition of C3b deposition on sensitized hRBCs in 7.5% human serum (flow cytometry), Donor A” value was found to be 69.2 nM; the “IC50, inhibition of C3b deposition on sensitized hRBCs in 7.5% human serum (flow cytometry), Donor B (1)” value was 193 nM; the “IC50, inhibition of C3b deposition on sensitized hRBCs in 7.5% human serum (flow cytometry), Donor B (2)” value was 262 nM.

B3: MAB2 (US20220380483A1) (antibody, V domains shown)
VH: B2 VH with S101T, Q102D
VL: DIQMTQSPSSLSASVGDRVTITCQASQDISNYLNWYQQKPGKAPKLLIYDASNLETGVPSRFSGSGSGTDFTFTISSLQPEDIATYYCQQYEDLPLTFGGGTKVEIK
Consider B3, for which the “IC50 in the RBC lysis assay (FIG. 4C)” value in [6] is 61.2 nM.

B4: MAB7 (antibody, V domains shown)
VH: B2 VH with S101T, Q102D, L105Y, Y107N
VL: DIQMTQSPSSLSASVGDRVTITCQASQDISNYLNWYQQKPGKAPKLLIYDASNLETGVPSRFSGSGSGTDFTFTISSLQPEDIATYYCQQYEDYPLVFGGGTKVEIK
notes: IgG
B4: in test [1], the affinity, expressed as Kd, was 1.22 nM; the koff is 0.000223 s⁻¹; the kon stood at 184000 M⁻¹ s⁻¹.

B5: IgG4-MAB39 (MAB39 in human IgG4 with S228P, L235E and YTE) (antibody)
heavy: EVQLVESGGGLVKPGGSLRLSCAASGFTFSDYYMSWIRQAPGKGLEWVSYISRSGSTKYYADSVKGRFTISRDNAKNSLYLQMNSLRAEDTAVYYCARDENYALDWWGQGTLVTVSSASTKGPSVFPLAPCSRSTSESTAALGCLVKDYFPEPVTVSWNSGALTSGVHTFPAVLQSSGLYSLSSVVTVPSSSLGTKTYTCNVDHKPSNTKVDKRVESKYGPPCPPCPAPEFEGGPSVFLFPPKPKDTLYITREPEVTCVVVDVSQEDPEVQFNWYVDGVEVHNAKTKPREEQFNSTYRVVSVLTVLHQDWLNGKEYKCKVSNKGLPSSIEKTISKAKGQPREPQVYTLPPSQEEMTKNQVSLTCLVKGFYPSDIAVEWESNGQPENNYKTTPPVLDSDGSFFLYSRLTVDKSRWQEGNVFSCSVMHEALHNHYTQKSLSLSLG
light: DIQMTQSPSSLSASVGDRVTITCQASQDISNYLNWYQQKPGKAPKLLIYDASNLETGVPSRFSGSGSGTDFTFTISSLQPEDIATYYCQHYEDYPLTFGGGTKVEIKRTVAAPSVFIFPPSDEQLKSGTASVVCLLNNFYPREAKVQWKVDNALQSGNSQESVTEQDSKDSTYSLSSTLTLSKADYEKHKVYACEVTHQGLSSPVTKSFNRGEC
notes: Differs from MAB9 only in the N-terminal VH residue (E instead of Q); also called IgG-MAB39
In test [7], B5 showed a dissociation constant Kd of 0.0105 nM, a koff of 0.000125 s⁻¹ and a kon of 1.19e+07 M⁻¹ s⁻¹.

B6: IgG4-MAB9 (MAB9 in human IgG4 with S228P, L235E and YTE) (antibody)
heavy: B5 heavy with E1Q
light: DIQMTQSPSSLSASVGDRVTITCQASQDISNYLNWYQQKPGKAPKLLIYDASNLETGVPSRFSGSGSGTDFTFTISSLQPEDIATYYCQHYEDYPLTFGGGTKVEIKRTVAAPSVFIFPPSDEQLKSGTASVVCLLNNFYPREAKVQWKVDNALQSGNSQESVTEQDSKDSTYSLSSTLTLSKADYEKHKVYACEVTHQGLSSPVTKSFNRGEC
notes: also called MAB9 with constant domain PE and YTE mutations
Consider B6, for which, in test [8], the “fold higher affinity than MAB2 (US20220380483A1)” value is around 10 fold. For the same molecule, in test [6], the “IC50 in the RBC lysis assay (FIG. 4C)” value was determined as 17.6 nM and the “fold improvement in potency (IC50, RBC lysis assay) against MAB2 (US20220380483A1)” value was above 3 fold. In addition, the “IC50, inhibition of Wieslab complement classical pathway (C5b-9 ELISA), 1% human serum” value in test [2] amounted to 0.78 nM. Further, in test [3], the “IC50, inhibition of sensitized hRBC lysis in 25% human serum, Donor 1” value was 12.9 nM; the “IC50, inhibition of sensitized hRBC lysis in 25% human serum, Donor 2” value was determined as 22.1 nM; the “IC50, inhibition of sensitized hRBC lysis in 25% human serum, Donor 3” value was 5.8 nM. Besides, in test [4], the “IC50, inhibition of sensitized hRBC lysis in 25% human serum” value was determined as 17.6 nM. Further, in test [5], the “IC50, inhibition of C3b deposition on sensitized hRBCs in 7.5% human serum (flow cytometry), Donor A” value came to 64.1 nM; the “IC50, inhibition of C3b deposition on sensitized hRBCs in 7.5% human serum (flow cytometry), Donor B (1)” value was determined as 124 nM; the “IC50, inhibition of C3b deposition on sensitized hRBCs in 7.5% human serum (flow cytometry), Donor B (2)” value turned out to be 202 nM. In test [9], this molecule showed a koff of 0.00012 s⁻¹ and a kon of 1.69e+07 M⁻¹ s⁻¹. In addition, the Kd in [10] came out at 7.1 pM.
